Measurements taken from article PMC5305270.
Positions count from the first letter of the chain named. Names may count otherwise.

T1: GST::DEP-1intra-DA (intracellular domain of C. elegans DEP-1 with the substrate trapping mutation D1241A, GST fusion), G5EGJ9
T1 chain: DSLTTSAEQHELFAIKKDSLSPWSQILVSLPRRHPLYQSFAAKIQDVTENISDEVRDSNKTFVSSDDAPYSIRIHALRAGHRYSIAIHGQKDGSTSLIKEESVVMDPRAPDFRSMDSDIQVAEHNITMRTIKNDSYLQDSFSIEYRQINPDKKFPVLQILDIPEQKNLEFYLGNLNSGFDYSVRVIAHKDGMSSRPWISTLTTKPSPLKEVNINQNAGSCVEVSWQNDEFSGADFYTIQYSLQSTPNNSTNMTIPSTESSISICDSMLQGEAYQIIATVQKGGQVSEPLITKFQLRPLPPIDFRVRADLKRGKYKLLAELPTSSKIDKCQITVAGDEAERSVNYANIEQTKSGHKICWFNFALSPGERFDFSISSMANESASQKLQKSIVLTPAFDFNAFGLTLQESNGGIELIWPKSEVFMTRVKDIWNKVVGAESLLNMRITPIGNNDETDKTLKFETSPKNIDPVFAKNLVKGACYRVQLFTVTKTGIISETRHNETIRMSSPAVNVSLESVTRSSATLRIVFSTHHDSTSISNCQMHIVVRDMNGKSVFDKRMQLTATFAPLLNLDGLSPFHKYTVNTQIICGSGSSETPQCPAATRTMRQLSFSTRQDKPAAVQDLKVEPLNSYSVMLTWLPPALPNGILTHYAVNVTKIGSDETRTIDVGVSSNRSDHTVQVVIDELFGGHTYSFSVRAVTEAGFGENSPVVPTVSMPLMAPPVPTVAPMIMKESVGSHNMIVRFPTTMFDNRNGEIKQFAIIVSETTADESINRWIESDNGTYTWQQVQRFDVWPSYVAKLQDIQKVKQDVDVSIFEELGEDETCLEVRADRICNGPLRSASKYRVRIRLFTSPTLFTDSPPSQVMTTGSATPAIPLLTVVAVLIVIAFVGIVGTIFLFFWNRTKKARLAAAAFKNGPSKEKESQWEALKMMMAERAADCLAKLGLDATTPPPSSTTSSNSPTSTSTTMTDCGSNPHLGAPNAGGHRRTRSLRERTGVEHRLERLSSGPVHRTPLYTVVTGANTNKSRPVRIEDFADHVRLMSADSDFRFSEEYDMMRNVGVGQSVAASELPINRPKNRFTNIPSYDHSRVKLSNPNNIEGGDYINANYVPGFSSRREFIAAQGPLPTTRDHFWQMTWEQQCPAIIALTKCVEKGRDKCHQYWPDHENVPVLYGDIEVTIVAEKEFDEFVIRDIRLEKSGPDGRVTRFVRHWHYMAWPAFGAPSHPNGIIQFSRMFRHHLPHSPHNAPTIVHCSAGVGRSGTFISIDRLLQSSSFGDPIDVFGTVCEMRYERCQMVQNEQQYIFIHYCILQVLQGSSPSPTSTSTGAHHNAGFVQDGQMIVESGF

B1: PAT-3::GFP (wild type), Q27874 Y792A; Y804A (protein)
chain: ASDWKTGEVTGKVVEKSEFPCYSLSRDNYTCSACIQYHESCAWCGAPMFDEKKPYARCDSRAKLMEHGCPNSYIEDPATKLDITEDSKLSDQGQVESEEEAVQIKPQEMYVEIRPKSRVRFNVTYRQAVDYPVDLYYLMDLSYSMKDDKQKLSELGDLLAERMRTVTKNFRLGFGSFIDKKLMPFIDPRIEKQLSPCPTPCAEPYGFKHQMSLTTNTAKFKAEVDKAEISGNLDAPEGGFDAVVQALACNKTIGWRERARKMIVFSTDAGFHFAGDGRLAGVVEPNDGTCHLDREGYYTETLNQDYPSIALLHQMIKDRKANVIFAVTKNNQDLYTQLSNALPDVSSSVGVLANDSRNIVDLIEKEYLKISEKIIMVDNANASEGLKLTYRSMCLDGTTLKDTNVCEGIRVGDEVQFEVTLENTHCIDKRDFVLRIGPSGLDETLIVNVKVLCDCDCERQDRIVTNSADCNGGDMVCGVCRCKGGNVGKYCECNRPGMSTAALNEKCKRTNESAICEGRGVCNCGRCECNPRANPEEQISGEFCECDNFNCPRHDRKICAEHGECNCGKCICAPGWTGRACECPISTDSCLSANGKICNGKGECICGRCRCFDSPDGNRYSGAKCEICPTCPTKCVEYKNCVMCQQWQTGPLNETACDQCEFKVIPVEELPNLNETTPCQFVDPADDCTFYYLYYYDEATDNATVWVRKHKDCPPPVPVLAIVLGVIAGIVILGILLLLLWKLLTVLHDRSEYATFNNERLMAKWDTNENPIAKQATTTFKNPVAAGKAN
B2: PAT-3::GFP (wild type), Q27874 Y792A (protein)
chain: B1 chain with A785Y
B3: PAT-3::GFP (wild type), Q27874 TTT796-798AAA (protein)
chain: B1 chain with A773Y, T777A, T778A, T779A, A785Y
B4: PAT-3::GFP (wild type), Q27874 Y804A (protein)
chain: B1 chain with A773Y
B5: PAT-3::GFP (wild type), Q27874 Y772A (protein)
chain: B1 chain with Y753A, A773Y, A785Y

Molecular target: T1, GST::DEP-1intra-DA (intracellular …)
Experiment: GST pull-down, anti-GFP Western blot, densitometry
Conditions: chain shown with the change; three independent experiments; band intensities normalized to input; parent: est. 100; read off a plot

percent of parent [%]	Binder
13	B1
10	B2
13	B3
92	B4
37	B5
